# The RNAGym collection of RNA variant scans (doi:10.1021/acssynbio.7b00057)
# B1: Pistol ribozyme (parent)
# chain: GGGUCGUUGUUCCAUAAUCGCGUGGAUAUGGCACGCAAGUUUCUACCGGGCACCGUAAAUGUCCGACUGGAGCCGUUCGGGCGGCUAUAAACAGACCUCAGGCCCGAAGCGUGGCGGCACCUGCCGCCGGUGGUAAAAAAGAUCGGAAGAGCACACGUCU
# Variants of: B1
# Assay: aptazyme ON/OFF ratio, guanine; higher = stronger switching; co-transcriptional cleavage with and without guanine
row,Variant,aptazyme ON/OFF ratio
1,U7G U10C U11C C12U C13U,1.09
2,U7G U10C U11C C12U C13G,1.09
3,U7G U10C U11C C12U C13A,1.06
4,U7G U10C U11A C13G,1.06
5,U7G U10C U11A C13U,1.16
6,U7G U10C U11A C13A,1.08
7,U7G U10A U11A C12G,1.1
8,U7G U10A U11A C12A,1.07
9,U7G U10A U11A C12U,1.16
10,U7G U10C U11G C12U C13U,1.18
11,U7G U10C U11G C12U C13A,1.11
12,U7G U10C U11G C12U C13G,1.13
13,U7G U8G U10G U11C C12G C13A,1.29
14,U7G U8G U10G U11C C12G C13U,1.4
15,U7G U8G U10G U11C C12G C13G,1.25
16,U7G U8G U10C U11A C12G C13G,1.23
17,U7G U8G U10C U11A C12G C13U,1.27
18,U7G U8G U10C U11A C12G C13A,1.17
19,U7G U10G C12A,1.22
20,U7G U10G C12G,1.09
21,U7G U8G U10C U11A C12U C13U,1.31
22,U7G U8G U10C U11A C12U C13G,1.37
23,U7G U8G U10C U11A C12U C13A,1.37
24,U7G U8G U10G U11G C12A C13G,1.03

row,Variant,aptazyme ON/OFF ratio
1,U7G U8G U10G U11G C12A C13U,1.33
2,U7G U8G U10G U11G C12A C13A,1.25
3,U7G U8G U10C C12U,1.52
4,U7G U8G U10C C12A,1.49
5,U7G U8G U10C C12G,1.09
6,U7G U8G U10C U11C C12G,1.18
7,U7G U8G U10C U11C C12A,1.41
8,U7G U8G U10C U11C C12U,1.35
9,U7G U10A U11G C13A,1.16
10,U7G U10A U11G C13G,1.14
11,U7G U10A U11G C13U,1.22
12,U7G U8G U10C U11G C12G C13A,1.19
13,U7G U8G U10C U11G C12G C13U,1.32
14,U7G U8G U10C U11G C12G C13G,1.41
15,U7G U8G U10C U11C C13G,1.07
16,U7G U8G U10C U11C C13U,1.12
17,U7G U8G U10C U11C C13A,1.07
18,U7G U8G U10A U11C C13G,1.25
19,U7G U8G U10A U11C C13U,1.08
20,U7G U8G U10A U11C C13A,1.27
21,U7G U8G U10C U11G C12A C13A,1.15
22,U7G U8G U10C U11G C12A C13G,1.16
23,U7G U8G U10C U11G C12A C13U,1.22
24,U7G U10A C12G,1.22

row,Variant,aptazyme ON/OFF ratio
1,U7G U10A C12U,1.16
2,U7G U10A C12A,1.21
3,U7G U8G U10G C13U,1.39
4,U7G U8G U10G C13G,1.47
5,U7G U8G U10G C13A,1.45
6,U7G U8G U10C U11A C12G,1.21
7,U7G U8G U10C U11A C12U,1.36
8,U7G U8G U10C U11A C12A,1.34
9,U7G U8G U10G U11C C13A,1.02
10,U7G U8G U10G U11C C13U,1.15
11,U7G U8G U10G U11C C13G,1.29
12,U7G U8G U10C U11C C12U C13A,1.29
13,U7G U8G U10C U11C C12U C13G,1.34
14,U7G U8G U10C U11C C12U C13U,1.4
15,U7G U8G U11C C12A C13U,1.26
16,U7G U8G U11C C12A C13G,1.15
17,U7G U8G U11C C12A C13A,1.42
18,U7G U8G U10C U11C C12A C13U,1.22
19,U7G U8G U10C U11C C12A C13G,1.23
20,U7G U8G U10C U11C C12A C13A,1.3
21,U7G U8G U10C C12U C13A,1.47
22,U7G U8G U10C C12U C13U,1.39
23,U7G U8G U10C C12U C13G,1.42
24,U7G U10A U11A C12U C13G,1.13

row,Variant,aptazyme ON/OFF ratio
1,U7G U10A U11A C12U C13U,1.16
2,U7G U10A U11A C12U C13A,1.09
3,U7G U10C U11C C13G,1.01
4,U7G U10C U11C C13A,1.06
5,U7G U10C U11C C13U,1.05
6,U7G U8G U11G C12A,1.42
7,U7G U8G U11G C12G,1.28
8,U7G U8G U11G C12U,1.25
9,U7G U10C U11G C12U,1.2
10,U7G U10C U11G C12G,1.15
11,U7G U10C U11G C12A,1.12
12,U7G U8G U10G U11A C12A C13U,1.23
13,U7G U8G U10G U11A C12A C13A,1.17
14,U7G U8G U10G U11A C12A C13G,1.31
15,U7G U8G U10G U11G C13U,1.37
16,U7G U8G U10G U11G C13A,1.62
17,U7G U8G U10G U11G C13G,1.13
18,U7G U8G U10A U11C C12U C13G,1.25
19,U7G U8G U10A U11C C12U C13A,1.42
20,U7G U8G U10A U11C C12U C13U,1.5
21,U7G U10C C12A,1.12
22,U7G U10C C12U,1.2
23,U7G U10C C12G,1.26
24,U7G U8G U10G C12G C13G,1.32

row,Variant,aptazyme ON/OFF ratio
1,U7G U8G U10G C12G C13U,1.26
2,U7G U8G U10G C12G C13A,1.21
3,U7G U10C U11A C12G C13A,1.07
4,U7G U10C U11A C12G C13U,1.06
5,U7G U10C U11A C12G C13G,1.11
6,U7G U8G U10G U11G,1.39
7,U7G U8G U10G U11A,1.66
8,U7G U8G U10G U11C,2.08
9,U7G U10A U11A C13A,1.14
10,U7G U10A U11A C13G,1.11
11,U7G U10A U11A C13U,1.11
12,U7G U10A C12U C13A,1.2
13,U7G U10A C12U C13U,1.25
14,U7G U10A C12U C13G,1.22
15,U7G U8G U10C U11G C12G,1.43
16,U7G U8G U10C U11G C12A,1.41
17,U7G U8G U10C U11G C12U,1.23
18,U7G U8G U11A C12U C13A,1.56
19,U7G U8G U11A C12U C13G,1.36
20,U7G U8G U11A C12U C13U,1.15
21,U7G U8G U10G C12A C13G,1.19
22,U7G U8G U10G C12A C13U,1.4
23,U7G U8G U10G C12A C13A,1.51
24,U7G U8G U11C C12G C13A,1.33

row,Variant,aptazyme ON/OFF ratio
1,U7G U8G U11C C12G C13G,1.23
2,U7G U8G U11C C12G C13U,1.33
3,U7G U10A U11C C12G C13U,1.11
4,U7G U10A U11C C12G C13A,1.1
5,U7G U10A U11C C12G C13G,1.03
6,U7G U10A C12A C13G,1.12
7,U7G U10A C12A C13A,1.21
8,U7G U10A C12A C13U,1.18
9,U7G U10A U11C C12A C13G,1.2
10,U7G U10A U11C C12A C13A,1.12
11,U7G U10A U11C C12A C13U,1.18
12,U7G U8G U10G U11A C12U C13G,1.17
13,U7G U8G U10G U11A C12U C13A,1.33
14,U7G U8G U10G U11A C12U C13U,1.17
15,U7G U10C C12G C13A,1.09
16,U7G U10C C12G C13G,1.04
17,U7G U10C C12G C13U,1.14
18,U7G U8G U10C U11A C12A C13U,1.14
19,U7G U8G U10C U11A C12A C13G,1.12
20,U7G U8G U10C U11A C12A C13A,1.08
21,U7G U8G U10G C12G,1.3
22,U7G U8G U10G C12U,1.54
23,U7G U8G U10G C12A,1.31
24,U7G U10A U11G C12G,1.21

row,Variant,aptazyme ON/OFF ratio
1,U7G U10A U11G C12A,1.13
2,U7G U10A U11G C12U,1.32
3,U7G U10A U11G,1.71
4,U7G U10A U11A,2.39
5,U7G U10A U11C,1
6,U7G U8G U10G U11A C12G C13A,1.28
7,U7G U8G U10G U11A C12G C13U,1.47
8,U7G U8G U10G U11A C12G C13G,1.44
9,U7G U8G U11A C12G,1.43
10,U7G U8G U11A C12U,1.38
11,U7G U8G U11A C12A,1.36
12,U7G U8G U10C U11G C12U C13A,1.16
13,U7G U8G U10C U11G C12U C13G,1.52
14,U7G U8G U10C U11G C12U C13U,1.41
15,U7G U8G U11A C13U,1.24
16,U7G U8G U11A C13G,1.24
17,U7G U8G U11A C13A,1.5
18,U7G U10C U11C C12G C13U,1.06
19,U7G U10C U11C C12G C13A,1.1
20,U7G U10C U11C C12G C13G,1.08
21,U7G U8G U11G C12A C13G,1.21
22,U7G U8G U11G C12A C13U,1.35
23,U7G U8G U11G C12A C13A,1.24
